Data from US20030124585A1, “Type II gonadotropin-releasing hormone receptor and polynucleotides encoding therefor” (Medical Research Council, priority 2000, published 2003).
Like-named read-outs stand apart in the source and are kept apart here. Square brackets hold non-standard residues; d marks the D form. Ends that are not written are not given here.

How the values were obtained:
[1] = biological target: T1, Marmoset Type II GnRH receptor (marmoset); experiment: cell-based or functional assay
T1 chain: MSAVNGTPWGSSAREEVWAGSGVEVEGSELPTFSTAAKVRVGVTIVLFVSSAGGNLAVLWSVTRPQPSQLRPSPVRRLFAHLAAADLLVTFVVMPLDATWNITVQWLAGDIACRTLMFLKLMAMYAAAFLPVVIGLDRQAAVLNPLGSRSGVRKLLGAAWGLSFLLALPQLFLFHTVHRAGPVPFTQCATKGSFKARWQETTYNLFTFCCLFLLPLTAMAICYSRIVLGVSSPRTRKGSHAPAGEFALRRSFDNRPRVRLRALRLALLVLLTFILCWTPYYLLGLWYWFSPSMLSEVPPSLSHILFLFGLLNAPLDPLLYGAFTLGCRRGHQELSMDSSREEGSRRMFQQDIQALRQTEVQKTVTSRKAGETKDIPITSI

[2] = biological target: T2, human Type I GnRH receptor (human), P30968; experiment: cell-based or functional assay
T2 chain: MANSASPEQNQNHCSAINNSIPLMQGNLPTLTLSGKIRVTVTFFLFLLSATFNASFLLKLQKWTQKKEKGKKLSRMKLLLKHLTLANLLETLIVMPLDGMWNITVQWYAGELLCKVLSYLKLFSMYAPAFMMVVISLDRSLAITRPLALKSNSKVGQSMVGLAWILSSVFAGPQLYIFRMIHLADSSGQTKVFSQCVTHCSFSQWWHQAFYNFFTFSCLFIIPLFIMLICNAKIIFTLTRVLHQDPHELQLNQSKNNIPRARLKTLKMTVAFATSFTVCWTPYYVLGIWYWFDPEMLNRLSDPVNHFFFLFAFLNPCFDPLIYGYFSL

[3] = biological target: T1, Marmoset Type II GnRH receptor …; experiment: competition with ^125I-[His^5-D-Tyr^6]GnRH I on COS-7 cells expressing the receptor (n = 3-6)
[4] = biological target: T2, human Type I GnRH receptor (human), …; experiment: as above
[5] = biological target: T1, Marmoset Type II GnRH receptor …; experiment: competition with ^125I-[His^5,D-Tyr^6]GnRH on COS-7 cells expressing marmoset Type II GnRH-R (FIG. 4, n=2)
[6] = biological target: T3, Marmoset Type II GnRH receptor (marmoset); experiment: cell-based or functional assay
T3 chain: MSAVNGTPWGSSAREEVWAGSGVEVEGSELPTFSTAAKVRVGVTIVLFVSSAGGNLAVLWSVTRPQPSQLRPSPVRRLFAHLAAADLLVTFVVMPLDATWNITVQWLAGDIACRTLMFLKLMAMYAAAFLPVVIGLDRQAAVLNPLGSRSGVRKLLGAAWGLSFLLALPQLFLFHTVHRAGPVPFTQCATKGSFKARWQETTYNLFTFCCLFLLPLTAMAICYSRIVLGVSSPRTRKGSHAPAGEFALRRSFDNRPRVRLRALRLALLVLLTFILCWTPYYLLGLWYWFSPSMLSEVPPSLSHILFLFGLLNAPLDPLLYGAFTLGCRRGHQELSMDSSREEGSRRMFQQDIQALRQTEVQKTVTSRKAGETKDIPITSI

[7] = biological target: T3, Marmoset Type II GnRH receptor; experiment: cell-based or functional assay
[8] = biological target: T4, human Type I GnRH receptor (human, UniProt P30968 1-328); experiment: cell-based or functional assay
T4 sequence (looked up): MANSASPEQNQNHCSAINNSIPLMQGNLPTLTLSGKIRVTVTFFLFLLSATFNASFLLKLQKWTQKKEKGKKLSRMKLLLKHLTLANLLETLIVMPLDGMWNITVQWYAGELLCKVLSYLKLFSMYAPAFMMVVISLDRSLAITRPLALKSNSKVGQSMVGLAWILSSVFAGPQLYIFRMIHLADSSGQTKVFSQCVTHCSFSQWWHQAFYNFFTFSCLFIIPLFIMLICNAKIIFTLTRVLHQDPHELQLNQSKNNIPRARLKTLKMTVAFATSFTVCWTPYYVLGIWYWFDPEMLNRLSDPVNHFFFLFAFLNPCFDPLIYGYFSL

[9] = biological target: T3, Marmoset Type II GnRH receptor; experiment: competition with ^125I-[His^5-D-Tyr^6]GnRH I on COS-7 cells expressing the receptor (n = 3-6)
[10] = biological target: T3, Marmoset Type II GnRH receptor; experiment: receptor binding assay on COS-7 cells; reference mammalian GnRH I
[11] = biological target: T3, Marmoset Type II GnRH receptor; experiment: receptor binding assay on COS-7 cells; reference human Type I GnRH receptor
[12] = biological target: T4, human Type I GnRH receptor; experiment: competition with ^125I-[His^5-D-Tyr^6]GnRH I on COS-7 cells expressing the receptor (n = 3-6)
[13] = biological target: T3, Marmoset Type II GnRH receptor; experiment: competition with ^125I-[His^5,D-Tyr^6]GnRH on COS-7 cells expressing marmoset Type II GnRH-R (FIG. 4, n=2)

QHWSYGWLPG (peptide, UniProt P01148 24-33, looked up, modifications not checked) [salmon GnRH, P01148 24-33]
InsP production (EC50) [1]: 5.99 nM
total inositol phosphate production (EC50) [1]: 8.7 nM
InsP production (EC50) [2]: 9.62 nM
IC50 [3]: 9.48 nM
IC50 [4]: 244 nM
IC50 [5]: 9.8 nM

QHWSYGLRPG (peptide, UniProt P01148 24-33, looked up, modifications not checked) [Mammalian GnRH I, P01148 24-33]
InsP production (EC50) [1]: 40.5 nM
total inositol phosphate production (EC50) [1]: 33.2 nM
IC50 [3]: 42.6 nM
IC50 [5]: 51.7 nM

B1: [D-Arg^6]GnRH II (peptide, UniProt O43555 24-33, looked up)
peptide: QHWSH[dR]WYPG
modifications: ends and bridges not checked
notes: mature; Synthetic analogue of GnRH II; also called [D-Arg^6]GnRH Type II
total inositol phosphate production (EC50) [6]: 1.1 nM
InsP production (EC50) [7]: 2.39 nM
InsP production (EC50) [8]: 3.8 nM
IC50 [9]: 3.34 nM

B2: GnRH II (peptide, UniProt O43555 24-33, looked up)
peptide: QHWSHGWYPG
modifications: ends and bridges not checked
notes: mature; also called GnRH Type II; Type II GnRH
stimulation of inositol phosphate production, fold greater activity relative to mammalian GnRH I [6]: 90 fold
total inositol phosphate production (EC50) [6]: 0.46 nM
InsP production (EC50) [7]: 0.45 nM
InsP production (EC50) [8]: 7.41 nM
fold greater activity relative to mammalian GnRH I [10]: 40 fold
fold greater affinity than for the Type I receptor [11]: 24 fold
IC50 [9]: 1.07 nM
IC50 [12]: 26.1 nM
IC50 [13]: 1.3 nM
